Residues, ends and D or L forms follow the SMILES beside them. No end group written: not given here. *: point of attachment. X1 = O=C(O)CN(CCN(CCN(CC(=O)O)CC(=O)O)C(CCCCNC(=O)CCCN1C(=O)CC(*)C1=O)C(=O)O)CC(=O)O
Experiments:
CD166^−HCT15 cells = assay: CD166tp-G18C binding assay by immunofluorescence staining; format: cell-based, human; conditions: fixed, 20 μg/mL, 2 h, Fig. 5b
Protocol: (§1) The CD166tp-G18C binding assay was determined by immunofluorescence staining in both CD166^−HCT15 and CD166^+HCT15 cells. Briefly, cells (1 × 10^4 cells) were seeded in 4-well Millicell EZ slides (Merck Millipore, Germany) with culture medium at 37 °C and 5% CO2 for 16 h. Cells were fixed using 4% paraformaldehyde for 30 min at 37 °C. The fixed-cells were then incubated in the SuperBlock Blocking Buffers (Thermo Fisher Scientific, USA) for 30 min. Cells were incubated with CD166tp-G18C-FITC (20 μg/mL) for 2 h. DAPI was used to stain the cell nuclei at a concentration of 0.2 μg DAPI/mL PBS for 10 min. The images were captured by a fluorescence microscope (BX53, Olympus, Japan) coupled to a CCD camera. Digital images were analyzed by an Image-Pro Plus software (Media Cybernetics, USA).

CD166^+HCT15 cells [1] = assay: as above; format: cell-based, human; conditions: fixed, 20 μg/mL, 2 h, Fig. 5b
Protocol: as §1

CD166 protein = biological target: T1, CD166 protein (Homo sapiens, UniProt Q13740); assay: CD166tp-G18C and CD166 protein interaction assay (immunoprecipitation with CD166 antibody); format: binding; parameters: endogenous in cells; host or cells: HCT15 cells (sorted CD166+ and CD166- populations); conditions: Fig. 5c
T1 sequence (Q13740 28-583): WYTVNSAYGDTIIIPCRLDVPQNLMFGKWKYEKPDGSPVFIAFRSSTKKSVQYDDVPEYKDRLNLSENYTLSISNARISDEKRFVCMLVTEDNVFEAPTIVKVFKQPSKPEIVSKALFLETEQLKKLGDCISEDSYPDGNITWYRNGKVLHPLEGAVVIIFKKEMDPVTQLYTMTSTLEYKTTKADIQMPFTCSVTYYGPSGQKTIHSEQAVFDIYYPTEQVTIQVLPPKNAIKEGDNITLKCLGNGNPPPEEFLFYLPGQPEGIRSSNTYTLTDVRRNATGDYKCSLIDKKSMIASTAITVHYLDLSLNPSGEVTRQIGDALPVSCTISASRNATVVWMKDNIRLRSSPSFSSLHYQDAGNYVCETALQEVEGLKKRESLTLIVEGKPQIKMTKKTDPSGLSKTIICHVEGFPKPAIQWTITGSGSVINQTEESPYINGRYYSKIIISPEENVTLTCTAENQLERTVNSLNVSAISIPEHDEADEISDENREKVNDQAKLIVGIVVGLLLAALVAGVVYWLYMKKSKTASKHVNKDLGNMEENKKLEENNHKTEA
Protocol: HCT15 cells (1 × 10^6 cells) were incubated with 20 μg/mL CD166tp-G18C-FITC in the presence or absence of 20 μg/mL CD166tp-G18C at 4 °C for 1 h. After treating immunoblotting lysis buffer with protease inhibitors cocktail (Hycell International, Taipei, Taiwan), the mixture solution was centrifuged at 14,000 rpm (4 °C) for 10 min. The supernatant was treated with or without 2 μg/mL biotinylated-CD166 antibody (Novus Biologicals, Littleton, CO, USA)-conjugated streptavidin agarose beads (Sigma-Aldrich) at 4 °C overnight. In the competitive group, cells were pre-treated with CD166tp-G18C (20 μg/mL) for 1 h at 4 °C. The fluorescence of immunoprecipitates was detected by an ELISA reader (Perkin Elmer).

CD166^+HCT15 cells [2] = assay: CD166tp-G18C binding assay by flow cytometry; format: cell-based, human; conditions: Fig. 5a
Protocol: For CD166 detection on the cellular surface, the optimized density (1 × 10^6 cell) of CD166^+HCT15 and CD166^−HCT15 cells were added with 1 mL PBS with 20 μg IgG-FITC and FITC-conjugated CD166 antibody (CD166ab-FITC) for 1 h. For the CD166tp-G18C binding assay, CD166^+HCT15 and CD166^−HCT15 cells were added with 1 mL PBS with 20 μg CD166tp-G18C-FITC and G18C-FITC for 1 h. In competitive group, CD166^+HCT15 cells were pre-treated with CD166tp-G18C (20 μg/mL) for 1 h and then added 20 μg/mL CD166tp-G18C-FITC for 1 h. After PBS washing, cells were collected for flow cytometric analysis using a FACSCalibur Flow Cytometer (BD Bioscience, San Diego, CA, USA).

[3] = test system: CD166^+HCT15 and CD166^−HCT15 cells; assay: Cell viability assay (CCK-8), cell resistance; conditions: 1, 5 and 50 μM, 24 h; absorbance 450 nm; Fig. 3b; n ≥ 5
in vivo = conditions: mouse, iv, 148 MBq/kg/mouse, total radioactivity
Protocol: (§2) CD166^+HCT15 cells were subcutaneously injected into the right hindlimb of mice for establishing CD166-expressed CRC xenograft mouse model. After tumor formation, the ^111In-DTPA, ^111In-DTPA-G18C, ^111In-DTPA-CD166tp-C, and ^111In-DTPA-CD166tp-G18C (148 MBq/kg/mouse) were intravenously injected into mice […]. After 2, 4, 24, and 48 h post-injection, mice were sacrificed and collected blood and organs including the brain, heart, lung, liver, spleen, kidneys, stomach, small intestine, colon, muscle, and tumor. The organ weight was measured. The radioactivity in blood and organs was determined by a 1470 WIZARD gamma counter (PerkinElmer). The percentage of injected dose per gram of tissue (%ID/g) was calculated.

[4] = test system: CD166^+HCT15 xenograft mice; assay: in vivo; conditions: mouse
Protocol: as §2

[5] = test system: CD166^+HCT15 xenograft mice; conditions: mouse, in vivo
Protocol: The male BALB/c nude mice were subcutaneously inoculating CD166^+HCT15 cells (1 × 10^6 cells) for 2 weeks, and then the ^111In-DTPA, ^111In-DTPA-G18C, ^111In-DTPA-CD166tp-C, and ^111In-DTPA-CD166tp-G18C (740 MBq/kg/mouse) were intravenously injected into mice. The imaging of CD166 in mice at 2, 4, 24, and 48 h were detected by a nano single-photon emission computed tomography/computed tomography (nanoSPECT/CT; Mediso Medical Imaging Systems, Budapest, Hungary). For competitive study, the CD166^+HCT15-derived xenograft mice were pre-treated with CD166tp-G18C (0, 10, and 50 mg/kg) for 6 h. Every mouse then received 740 MBq/kg ^111In-DTPA-CD166tp-G18C via intravenous injection for 24 and 48 h. The competitive CD166 images were observed by a nanoSPECT/CT.

For “CD166tp-G18C-FITC: FITC-labeled CD166tp-G18C (DSEGNSNLCSQSGGGGGGGGGGGGGGGGGGC; cysteine pairing not given here; also: FITC label, site not given here)”, the “binding ability by immunofluorescence” value (CD166^−HCT15 cells) was “but not in CD166^−HCT15 cells”, the “binding ability by immunofluorescence” value (CD166^+HCT15 cells [1]) was “increased” and the “binding via CD166 protein (fluorescence of CD166 antibody immunoprecipitates)” value (CD166 protein; CD166^+HCT15 cells, 20 μg/mL, 1 h, 4 °C, biotinylated-CD166 antibody 2 μg/mL, n ≥ 3) was “could bind”. For the same compound, the “fluorescence of CD166tp-G18C-FITC on cells (flow cytometry)” value (CD166^+HCT15 cells [2]; CD166^+HCT15 cells, 20 μg/mL, 1 h, n ≥ 3) was “significantly increased”.
In the case of `COc1cccc2c1C(=O)c1c(O)c3c(c(O)c1C2=O)C[C@@](O)(C(=O)CO)C[C@@H]3O[C@H]1C[C@H](N)[C@H](O)[C@H](C)O1` [doxorubicin], the “resistance of CD166^+HCT15 cells as compared to CD166^−HCT15 cells (cell viability, CCK-8)” value [3] is reported as “significant resistance”.
With “DSEGNSNLCSQSGGGGGGGGGGGGGGGGGGC [CD166tp-G18C, Glycine18-Cysteine-linked CD166-targeted peptide]” the “competition: effect of pretreatment on CD166tp-G18C-FITC binding (immunoprecipitation assay)” value (CD166 protein; pre-treated with 20 μg/mL for 1 h at 4 °C) was “could be inhibited” and the “competition: effect of pretreatment on binding efficiency of CD166tp-G18C-FITC (flow cytometry)” value (CD166^+HCT15 cells [2]; CD166^+HCT15 cells pre-treated with 20 μg/mL for 1 h, then 20 μg/mL CD166tp-G18C-FITC 1 h) was “markedly decreased the binding efficiency of CD166tp-G18C-FITC”.
For `CC(C)C[C@H](NC(=O)[C@H](CC(N)=O)NC(=O)[C@H](CO)NC(=O)[C@H](CC(N)=O)NC(=O)CNC(=O)[C@H](CCC(=O)O)NC(=O)[C@H](CO)NC(=O)[C@@H](N)CC(=O)O)C(=O)N[C@@H](CS)C(=O)N[C@@H](CO)C(=O)N[C@@H](CCC(N)=O)C(=O)N[C@@H](CO)C(=O)NCC(=O)NCC(=O)NCC(=O)NCC(=O)NCC(=O)NCC(=O)NCC(=O)NCC(=O)NCC(=O)NCC(=O)NCC(=O)NCC(=O)NCC(=O)NCC(=O)NCC(=O)NCC(=O)NCC(=O)NCC(=O)N[C@@H](CSC1CC(=O)N(CCCC(=O)NCCCCC(C(=O)O)N(CCN(CC(=O)O)CC(=O)O)CCN(CC(=O)O)CC(=O)O)C1=O)C(=O)O` (some centres unmarked) [^111In-DTPA-CD166tp-G18C, metal not drawn] (H-DSEGNSNLCSQSGGGGGGGGGGGGGGGGGGC(X1)-OH; N-terminus and C-terminus assumed), the tissue to tissue ratio at 48 h (in vivo) was 48.9 ± 5.03, the tissue uptake at 4 h (in vivo) was 10.1 ± 1.26 %ID/g and the tissue uptake at 24 h (in vivo) was 11.1 ± 2.2 %ID/g. For the same compound, the “ratio of tumor-to-blood (T/B)” value [4] was “remarkably increased”, the “ratio of tumor-to-muscle (T/M)” value [4] was “remarkably increased” and the tumor-to-blood ratios [4] was 5.94 ± 0.51. The “difference of counts between background and tumor area (nanoSPECT/CT)” value [5] was “about 8 times”.

Reference: publication PMC7040160, “Indium-111-labeled CD166-targeted peptide as a potential nuclear imaging agent for detecting colorectal cancer stem-like cells in a xenograft mouse model” (EJNMMI Research, 2020)
